Measured values taken from patent publication US20230192789A1, “STRUCTURALLY-STABILIZED AND HDMX-SELECTIVE P53 PEPTIDES AND USES THEREOF” (Dana-Farber Cancer Institute, Inc., priority 2020, published 2023).
“Also recorded” adds a separate entry of the source. Bridges are numbered along the chain shown (N, C = ends). Where no end group is shown, it is not given here. [ ]: non-standard residue; d: D form. The star is where a group is joined. Biotin = O=C1N[C@H]2[C@H](CS[C@H]2CCCCC(=O)*)N1; R8 = C=CCCCCCC[C@@](C)(N)C(=O)O; S5 = C=CCCC[C@](C)(N)C(=O)O

Key:
[1] = molecular target: T1, recombinant HDMX (amino acids 1-490 of SEQ ID NO:104) (Homo sapiens, UniProt O15151); assay: Competitive streptavidin pull-down of biotinylated peptides with 1:1 recombinant HDM2/HDMX mixture, HDMX western; format: binding; settings: biotinylated stapled peptide, 1:1 mixture of recombinant HDM2 and HDMX
T1 construct: thioredoxin (N, cleaved yes); S tag (N, cleaved yes); hexahistidine (N, cleaved yes); made in house; host or cells: E. coli (inferred: pET32-LIC vector, handled as described for HDM2 in BL21(DE3))
T1 sequence (O15151 1-490): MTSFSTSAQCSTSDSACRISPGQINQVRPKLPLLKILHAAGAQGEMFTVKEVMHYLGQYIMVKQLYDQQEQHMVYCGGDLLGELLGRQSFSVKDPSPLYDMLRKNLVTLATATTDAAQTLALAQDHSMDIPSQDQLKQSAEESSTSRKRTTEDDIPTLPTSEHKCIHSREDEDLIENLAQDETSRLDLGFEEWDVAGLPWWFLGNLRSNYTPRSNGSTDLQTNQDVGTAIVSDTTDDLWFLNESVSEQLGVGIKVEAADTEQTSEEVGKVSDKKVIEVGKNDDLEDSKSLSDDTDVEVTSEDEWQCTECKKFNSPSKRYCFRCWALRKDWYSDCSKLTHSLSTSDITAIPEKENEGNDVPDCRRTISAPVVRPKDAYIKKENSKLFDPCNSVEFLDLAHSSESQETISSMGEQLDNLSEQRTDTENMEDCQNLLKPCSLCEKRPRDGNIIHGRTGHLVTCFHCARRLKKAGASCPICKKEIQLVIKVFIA

[2] = molecular target: T2, recombinant HDM2 (amino acids 17-125 of SEQ ID NO:103) (Homo sapiens, UniProt Q00987); assay: Competitive streptavidin pull-down of biotinylated peptides with 1:1 recombinant HDM2/HDMX mixture, HDM2 western; format: binding; settings: biotinylated stapled peptide, 1:1 mixture of recombinant HDM2 and HDMX
T2 construct: hexahistidine (N); thrombin cleavage site (N); made in house; host or cells: BL21(DE3) E. coli
Description: For these studies, biotinylated peptides were incubated with a 1:1 mixture of recombinant HDM2 (amino acids 17-125 of SEQ ID NO: 103) and HDMX (amino acids 1-490 of SEQ ID NO: 104), followed by streptavidin pull-down and HDM2 and HDMX Western analyses. […] .

[3] = tested on: OCI-AML2 cells; assay: LDH release assay, OCI-AML2; format: cell-based; settings: OCI-AML2, 90 minutes after peptide treatment, highest dosing level
Description: (§1) LDH release assay: To assess the release of lactate dehydrogenase (LDH) upon treatment with a structurally-stabilized peptide described herein, an LDH release assay can be used. Cultured cells, including, e.g., cancer cells and HUVEC cells, are plated in 96-well format (2x10^4 cells per well; including overnight incubation for adherent cells) and then treated with serial dilutions of structurally-stabilized peptides in a final volume of 100 µL and incubated at 37° C. for the indicated time period (e.g., 90 minutes). The plates are spun down at 1500 rpm for 5 minutes at 4° C., and 80 µL of cell culture media is transferred to a clear plate (Corning), incubated with 80 µL of LDH reagent (Roche) for 15 minutes while shaking, and absorbance is measured at 490 nm on a microplate reader (SpectraMax M5 Microplate Reader, Molecular Devices).
(§2) LDHRelease Assay: OCI-AML2 cells (1 × 10^4 cells/well) were plated in 96-well plates and treated with the indicated peptides or vehicle (0.2% DMSO). After 1.5 hours incubation at 37° C., 100 µl of cell medium was transferred to a 96-well clear plate and incubated with 100 µl of LDH reagent (Roche) for 25 minutes while shaking, and absorbance at 490 nm measured on a microplate reader (SpectraMax M5 Microplate Reader, Molecular Devices).

[4] = tested on: EOL-1 cells; assay: LDH release assay, EOL-1; format: cell-based; settings: EOL-1, 90 minutes after peptide treatment, highest dosing level
Description: as §1, §2

[5] = molecular target: T3, native HDMX (Homo sapiens, UniProt O15151); assay: Streptavidin pull-down from cancer cell lysates, HDMX western; format: binding
T3 construct: high fidelity selectivity for native HDMX from cells; endogenous in cells; host or cells: EOL-1 and OCI-AML2 lysates (endogenous); SJSA-X lysates (cells engineered to express HDMX)
T3 sequence (O15151 1-490): T1 sequence (O15151 1-490)
Description: (§3) In order to determine if the insights gleaned from the biochemical and structural analyses (Examples 1 and 2, above) informed the development of a stapled p53 peptide with high fidelity selectivity for native HDMX from cells, binding assays were performed using cellular lysates from both hematologic (FIG. 16A) and solid (FIG. 16B) cancers.
(§4) Streptavidin Pull-Down - Cell Lysates: Cultured cells were trypsinized, washed once with cold PBS, and lysed on ice for 30 minutes in lysis buffer (0.5% NP-40, 150 mM NaCl, 50 mM Tris pH 7.4). Protein concentration of the isolated supernatant was determined by Bradford reagent. Lysate samples (2 mg) were incubated with vehicle (0.6% DMSO) or biotinylated peptides (15 nmole) overnight in lysis buffer at 4° C. […] Bead-bound proteins were eluted by addition of 50 µl 2x LDS supplemented with DTT and boiling for 10 minutes. Eluted proteins were then subjected to electrophoresis and western blotting using HDM2 (IF2, EMD Millipore, 1:200) and MDM4 (A300-287A; Bethyl Laboratories, 1:1000) antibodies.

[6] = molecular target: T4, native HDM2 (Homo sapiens, UniProt Q00987); assay: Streptavidin pull-down from cancer cell lysates, HDM2 western; format: binding
T4 construct: in the context of the native proteins from cancer cell lysates; endogenous in cells; host or cells: EOL-1, OCI-AML2, SJSA-X cell lysates
Description: as §3, §4

[7] = tested on: wild-type, Y99F, and Y99A HDMX (full-length); assay: Streptavidin pull-down with wild-type, Y99F and Y99A HDMX proteins; settings: biotinylated peptide, full-length HDMX proteins incubated individually, HDMX western
[8] = molecular target: T5, recombinant HDM2 (amino acids 17-125 of SEQ ID NO:103) (human, UniProt Q00987 17-125); assay: isothermal titration calorimetry, peptide titrated into HDM2
T5 construct: also called MDM2; not shown: thrombin cleavage site (pET28a vector)

[9] = molecular target: T5, recombinant HDM2 (amino acids 17-125 of …); assay: fluorescence polarization, FITC-labelled peptide titrated with HDM2
[10] = molecular target: T5, recombinant HDM2 (amino acids 17-125 of …); assay: isothermal titration calorimetry, peptide titrated into HDM2; remark: listed apart in the source
[11] = EOL-1, OCI-AML2, and SJSA-X cancer cell lysates
[12] = EOL-1 and OCI-AML2 leukemia cell lysates, biotinylated peptide
[13] = SJSA-X osteosarcoma cell lysates, biotinylated peptide

## ATSP-7041 B26R (Biotin-LTF[R8]EYWAQR[S5]SAA-NH2; staple 4-11; SMILES CC(C)C[C@H](NC(=O)CCCC[C@@H]1SC[C@@H]2NC(=O)N[C@@H]21)C(=O)N[C@H](C(=O)N[C@@H](Cc1ccccc1)C(=O)N[C@]1(C)CCCCCCC=CCCC[C@@](C)(C(=O)N[C@@H](CO)C(=O)N[C@@H](C)C(=O)N[C@@H](C)C(N)=O)NC(=O)[C@H](CCCNC(=N)N)NC(=O)[C@H](CCC(N)=O)NC(=O)[C@H](C)NC(=O)[C@H](Cc2c[nH]c3ccccc23)NC(=O)[C@H](Cc2ccc(O)cc2)NC(=O)[C@H](CCC(=O)O)NC1=O)[C@@H](C)O)
[1]
  HDMX interaction: engage HDMX with greatest affinity
  HDMX versus HDM2 binding selectivity: HDMX selectivity over HDM2; also recorded: most HDMX-specific
[2]
  HDM2 interaction: essentially abrogate HDM2 interaction

## ATSP-7041 B26I (Biotin-LTF[R8]EYWAQI[S5]SAA-NH2; staple 4-11; SMILES CC[C@H](C)[C@@H]1NC(=O)[C@H](CCC(N)=O)NC(=O)[C@H](C)NC(=O)[C@H](Cc2c[nH]c3ccccc23)NC(=O)[C@H](Cc2ccc(O)cc2)NC(=O)[C@H](CCC(=O)O)NC(=O)[C@](C)(NC(=O)[C@H](Cc2ccccc2)NC(=O)[C@@H](NC(=O)[C@H](CC(C)C)NC(=O)CCCC[C@@H]2SC[C@@H]3NC(=O)N[C@@H]32)[C@@H](C)O)CCCCCCC=CCCC[C@@](C)(C(=O)N[C@@H](CO)C(=O)N[C@@H](C)C(=O)N[C@@H](C)C(N)=O)NC1=O)
[1]
  HDMX versus HDM2 binding selectivity: dual HDM2/HDXM-targeting activity
[1]; listed as SEQ ID NO:63
  HDMX versus HDM2 binding selectivity: dual-selectivity to HDMX and HDM2
[2]
  HDM2 interaction: restored HDM2 binding and bind

## ATSP-7041 B26L
[1]
  HDMX versus HDM2 binding selectivity: dual HDM2/HDXM-targeting activity
[1]; listed as SEQ ID NO:65
  HDMX versus HDM2 binding selectivity: dual-selectivity to HDMX and HDM2
[2]
  HDM2 interaction: restored HDM2 binding and bind

## CC(=O)N[C@@H](CC(C)C)C(=O)N[C@H](C(=O)N[C@@H](Cc1ccccc1)C(=O)N[C@]1(C)CCCCCCC=CCCC[C@@](C)(C(=O)N[C@@H](CO)C(=O)N[C@@H](C)C(=O)N[C@@H](C)C(N)=O)NC(=O)[C@H](CCC(=O)O)NC(=O)[C@H](CCC(N)=O)NC(=O)[C@H](C)NC(=O)[C@H](Cc2c[nH]c3ccccc23)NC(=O)[C@H](Cc2ccc(O)cc2)NC(=O)[C@H](CCC(=O)O)NC1=O)[C@@H](C)O [ATSP-7041 B26E, LTF8EYWAQEXSAA]
[3]
  non-specific membrane disruption (LDH release): no non-specific membrane disruptive activity
[4]
  non-specific membrane disruption (LDH release): no non-specific membrane disruptive activity

## SAH-p53-4 K24E/E28A: Formula (I) stapled peptide: [Xaa]w LSQETF, [Xaa]x DLWELL, [Xaa]y AN (LSQETF[R8]DLWELL[S5]AN-NH2; staple 7-14; not fully specified (N-terminus))
[1]
  HDMX interaction: HDMX binding
  HDMX versus HDM2 binding selectivity: restored dual HDM2/HDMX interaction
[1]; listed as SEQ ID NO:47
  HDMX versus HDM2 binding selectivity: selectivity to HDM2
[2]
  HDM2 interaction: especially robust HDM2 interaction

## QSQQTF8NLWRLLXQN [SAH-p53-8, reference compound]
[1]
  HDMX versus HDM2 binding selectivity: dual-targeting HDM2/HDMX
[5]; [11]
  native HDMX binding: effectively engaged
[5]; [12]
  native HDMX binding: binds
[5]; [13]
  native HDMX binding: binds
[6]; [11]
  native HDM2 binding: effectively engaged
[6]; [12]
  native HDM2 binding: binds
[6]; [13]
  native HDM2 binding: binds
[7]
  interaction with Y99F and Y99A HDMX: retained interaction; also recorded: effectively bind

## QSQQTF8NLWRLEXQN (QSQQTF[R8]NLWRLE[S5]QN; staple 7-14) [SAH-p53-8 L26E]
[1]
  HDMX interaction: robust HDMX-binding activity
  HDMX versus HDM2 binding selectivity: exquisite binding selectivity for HDMX; also recorded: HDMX-selective
[5]; [11]
  native HDMX binding: preserved
[5]; [12]
  native HDMX binding: selective interaction with HDMX
[5]; [13]
  native HDMX binding: predominant HDMX interaction
[6]; [11]
  native HDM2 binding: markedly impaired or abrogated
[6]; [12]
  native HDM2 binding: abrogates HDM2 binding
[6]; [13]
  native HDM2 binding: impairs HDM2 interaction
[7]
  interaction with Y99F and Y99A HDMX: significantly impaired; also recorded: markedly impair interaction

## ATSP-7041 B26A (Biotin-LTF[R8]EYWAQA[S5]SAA-NH2; staple 4-11; SMILES CC(C)C[C@H](NC(=O)CCCC[C@@H]1SC[C@@H]2NC(=O)N[C@@H]21)C(=O)N[C@H](C(=O)N[C@@H](Cc1ccccc1)C(=O)N[C@]1(C)CCCCCCC=CCCC[C@@](C)(C(=O)N[C@@H](CO)C(=O)N[C@@H](C)C(=O)N[C@@H](C)C(N)=O)NC(=O)[C@H](C)NC(=O)[C@H](CCC(N)=O)NC(=O)[C@H](C)NC(=O)[C@H](Cc2c[nH]c3ccccc23)NC(=O)[C@H](Cc2ccc(O)cc2)NC(=O)[C@H](CCC(=O)O)NC1=O)[C@@H](C)O)
[1]
  HDMX interaction: engage HDMX with greatest affinity
  HDMX versus HDM2 binding selectivity: HDMX selectivity over HDM2; also recorded: most HDMX-specific
[2]
  HDM2 interaction: essentially abrogate HDM2 interaction

B1: SAH-p53-4 (peptide)
peptide: LSQETF[R8]DLWKLL[S5]EN
modifications: staple 7-14; also: N-terminus biotin, acetyl or FITC depending on assay
notes: One entry for the peptide; also called wild-type SAH-p53-4; LSQETF8DLWKLLXEN
[8]
  Kd: 20.4 nM
[9]
  Kd: 12 nM

## LSQETF[R8]DLWKLE[S5]EN (staple 7-14; also: N-terminus biotin, acetyl or FITC depending on assay) [SAH-p53-4 L26E]
[10]
  Kd: 256 nM
[9]
  Kd: 149 nM
